Measurements taken from PMC11487180.

Legend:
[1] = molecular target: PAK6 (Homo sapiens) (UniProt Q9NQU5); settings: cited from earlier work
[2] = molecular target: 3xFlag tagged PAK6, full-length, purified from HEK293 cells (human) (UniProt Q9NQU5); assay: MST; NT-647-NHS labelled PAK6 full-length at 100 nM; unlabelled MBP-LRRK2-Roc-COR titrated (R1441C 3.4 nM to 110 µM, Y1699C 3.6 nM to 118 µM); guanine nucleotides at 0.5 mM; Monolith NT.115, IR laser power 80%; analysed by PALMIST
[3] = molecular target: MBP-LRRK2-Roc-COR (wild type) (human) (UniProt Q5S007); assay: MST; NT-647-NHS labelled MBP-LRRK2-Roc-COR at 100 nM; unlabelled GST, GST-CRIB-PAK5 or GST-CRIB-PAK6 titrated; guanine nucleotides at 0.5 mM; Monolith NT.115, IR laser power 80%; analysed by PALMIST
Chain of MBP-LRRK2-Roc-COR (wild type) (human) (Q5S007 whole entry): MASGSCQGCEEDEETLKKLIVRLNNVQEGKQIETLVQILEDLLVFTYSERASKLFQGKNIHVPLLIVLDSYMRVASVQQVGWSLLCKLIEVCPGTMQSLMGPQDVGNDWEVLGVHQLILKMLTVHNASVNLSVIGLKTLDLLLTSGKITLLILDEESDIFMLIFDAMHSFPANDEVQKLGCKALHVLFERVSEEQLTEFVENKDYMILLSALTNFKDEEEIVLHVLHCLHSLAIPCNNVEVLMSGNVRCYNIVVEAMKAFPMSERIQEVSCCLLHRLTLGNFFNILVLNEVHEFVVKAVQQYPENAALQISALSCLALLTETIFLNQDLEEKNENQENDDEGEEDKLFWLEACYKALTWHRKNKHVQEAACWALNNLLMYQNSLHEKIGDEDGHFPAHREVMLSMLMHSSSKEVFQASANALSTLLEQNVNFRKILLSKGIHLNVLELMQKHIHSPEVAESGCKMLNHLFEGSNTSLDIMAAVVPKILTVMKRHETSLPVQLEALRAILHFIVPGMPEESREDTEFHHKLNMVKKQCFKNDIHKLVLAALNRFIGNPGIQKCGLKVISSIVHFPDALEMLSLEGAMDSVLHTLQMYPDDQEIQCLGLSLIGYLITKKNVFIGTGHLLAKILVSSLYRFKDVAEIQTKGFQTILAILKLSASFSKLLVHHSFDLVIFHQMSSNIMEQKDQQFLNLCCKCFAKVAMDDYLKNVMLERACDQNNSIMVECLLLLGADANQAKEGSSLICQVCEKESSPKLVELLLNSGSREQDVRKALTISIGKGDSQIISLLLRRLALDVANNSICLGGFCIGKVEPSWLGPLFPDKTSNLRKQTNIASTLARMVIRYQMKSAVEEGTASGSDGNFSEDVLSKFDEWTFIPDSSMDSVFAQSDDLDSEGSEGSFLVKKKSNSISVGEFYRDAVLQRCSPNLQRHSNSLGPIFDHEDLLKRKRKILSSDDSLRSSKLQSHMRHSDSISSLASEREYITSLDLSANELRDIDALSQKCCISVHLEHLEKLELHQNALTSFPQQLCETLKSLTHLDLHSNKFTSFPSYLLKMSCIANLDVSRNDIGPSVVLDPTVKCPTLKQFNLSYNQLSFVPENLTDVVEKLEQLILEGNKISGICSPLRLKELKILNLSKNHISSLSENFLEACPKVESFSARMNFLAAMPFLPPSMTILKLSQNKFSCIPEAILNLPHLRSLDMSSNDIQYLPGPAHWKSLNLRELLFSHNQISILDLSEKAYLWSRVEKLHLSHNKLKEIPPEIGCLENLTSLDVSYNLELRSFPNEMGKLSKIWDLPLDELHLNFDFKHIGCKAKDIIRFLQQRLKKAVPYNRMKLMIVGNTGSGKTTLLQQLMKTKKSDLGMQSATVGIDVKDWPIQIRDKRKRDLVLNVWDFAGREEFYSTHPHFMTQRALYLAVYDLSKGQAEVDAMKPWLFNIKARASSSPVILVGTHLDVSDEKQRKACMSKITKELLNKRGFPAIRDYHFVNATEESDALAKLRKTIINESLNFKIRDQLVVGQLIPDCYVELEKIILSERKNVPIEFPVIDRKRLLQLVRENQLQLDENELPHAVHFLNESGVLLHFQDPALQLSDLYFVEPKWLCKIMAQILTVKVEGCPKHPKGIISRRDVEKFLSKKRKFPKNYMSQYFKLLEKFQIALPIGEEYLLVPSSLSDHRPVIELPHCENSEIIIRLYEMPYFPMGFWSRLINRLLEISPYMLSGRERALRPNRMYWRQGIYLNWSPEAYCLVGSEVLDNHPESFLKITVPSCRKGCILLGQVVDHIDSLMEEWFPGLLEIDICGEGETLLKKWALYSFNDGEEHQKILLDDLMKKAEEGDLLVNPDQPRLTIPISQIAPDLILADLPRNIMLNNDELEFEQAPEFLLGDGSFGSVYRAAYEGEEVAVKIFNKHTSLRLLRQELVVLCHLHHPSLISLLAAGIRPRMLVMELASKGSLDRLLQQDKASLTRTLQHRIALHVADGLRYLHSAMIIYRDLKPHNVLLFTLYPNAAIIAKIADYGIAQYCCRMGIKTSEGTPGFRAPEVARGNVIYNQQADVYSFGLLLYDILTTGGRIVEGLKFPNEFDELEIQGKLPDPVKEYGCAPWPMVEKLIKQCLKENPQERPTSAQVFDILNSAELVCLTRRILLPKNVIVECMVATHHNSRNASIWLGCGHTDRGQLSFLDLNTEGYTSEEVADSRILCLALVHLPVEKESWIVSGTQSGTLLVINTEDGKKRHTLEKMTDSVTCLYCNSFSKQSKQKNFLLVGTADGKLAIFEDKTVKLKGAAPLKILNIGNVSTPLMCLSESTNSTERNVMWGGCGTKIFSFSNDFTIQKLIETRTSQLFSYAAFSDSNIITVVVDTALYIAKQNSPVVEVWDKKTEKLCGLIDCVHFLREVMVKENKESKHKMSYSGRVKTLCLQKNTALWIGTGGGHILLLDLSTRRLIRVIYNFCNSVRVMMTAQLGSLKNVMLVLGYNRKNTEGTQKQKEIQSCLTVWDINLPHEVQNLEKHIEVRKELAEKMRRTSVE

Chain of 3xFlag tagged PAK6, full-length, purified from HEK293 cells (human) (Q9NQU5 whole entry): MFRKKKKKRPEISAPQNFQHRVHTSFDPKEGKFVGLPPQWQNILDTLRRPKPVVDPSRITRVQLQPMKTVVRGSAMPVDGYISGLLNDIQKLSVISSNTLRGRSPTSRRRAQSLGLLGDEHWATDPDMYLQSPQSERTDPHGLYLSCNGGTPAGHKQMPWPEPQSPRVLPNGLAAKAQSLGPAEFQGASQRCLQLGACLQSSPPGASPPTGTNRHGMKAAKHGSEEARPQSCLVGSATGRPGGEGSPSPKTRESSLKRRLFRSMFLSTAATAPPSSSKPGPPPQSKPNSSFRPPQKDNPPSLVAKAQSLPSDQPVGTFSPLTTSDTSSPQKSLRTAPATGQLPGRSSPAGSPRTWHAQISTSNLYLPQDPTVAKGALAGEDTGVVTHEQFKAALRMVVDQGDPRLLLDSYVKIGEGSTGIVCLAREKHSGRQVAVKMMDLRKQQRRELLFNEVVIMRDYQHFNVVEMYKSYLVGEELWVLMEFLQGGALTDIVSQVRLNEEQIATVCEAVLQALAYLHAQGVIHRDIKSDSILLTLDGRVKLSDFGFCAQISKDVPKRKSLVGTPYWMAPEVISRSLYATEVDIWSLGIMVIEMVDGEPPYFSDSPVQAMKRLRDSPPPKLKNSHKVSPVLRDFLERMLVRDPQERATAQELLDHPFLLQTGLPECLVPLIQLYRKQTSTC
Chain of PAK6 (Homo sapiens) (Q9NQU5 whole entry): as above
Chain of GST-CRIB(PAK5) (Q9P286 10-44): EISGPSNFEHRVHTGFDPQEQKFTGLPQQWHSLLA
Chain of GST-CRIB(PAK6) (Q9NQU5 11-45): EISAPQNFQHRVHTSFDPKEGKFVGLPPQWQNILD
Chain of LRRK2 Roc-COR (Q5S007 1328-1840): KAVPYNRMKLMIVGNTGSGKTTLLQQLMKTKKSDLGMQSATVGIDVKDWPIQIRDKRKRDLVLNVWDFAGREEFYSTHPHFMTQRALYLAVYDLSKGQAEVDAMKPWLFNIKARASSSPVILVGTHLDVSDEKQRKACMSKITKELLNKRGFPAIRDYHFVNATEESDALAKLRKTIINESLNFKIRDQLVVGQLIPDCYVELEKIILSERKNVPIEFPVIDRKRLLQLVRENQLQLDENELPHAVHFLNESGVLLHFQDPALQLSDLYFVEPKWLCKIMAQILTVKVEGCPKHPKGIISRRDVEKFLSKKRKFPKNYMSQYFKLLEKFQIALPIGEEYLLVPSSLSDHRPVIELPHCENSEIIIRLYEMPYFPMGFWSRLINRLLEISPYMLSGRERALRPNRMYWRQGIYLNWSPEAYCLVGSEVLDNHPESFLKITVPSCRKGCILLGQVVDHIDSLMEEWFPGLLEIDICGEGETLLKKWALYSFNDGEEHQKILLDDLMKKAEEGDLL

Row | Substance | Kd [2] [µM] | Kd [3] [µM] | also measured
1 | LRRK2 Roc-COR (from UniProt Q5S007) |  |  | Kd [1]: 10 µM
2 | MBP-LRRK2-Roc-COR R1441C (from UniProt Q5S007 1-2527) (domain or fragment) | 51.8 |  | 
3 | MBP-LRRK2-Roc-COR Y1699C (from UniProt Q5S007 1-2527) (domain or fragment) | 38.2 |  | 
4 | GST-CRIB(PAK6) (from UniProt Q9NQU5 11-45) (domain or fragment) |  | 12 | 
5 | GST-CRIB(PAK5) (from UniProt Q9P286 10-44) (domain or fragment) |  | 112 | 
